T1: NY-ESO-1 peptide on HLA-A*02:01 (human)
T1 peptide: SLLMWITQC


Tests used:
[1] = target: T1, NY-ESO-1 peptide on HLA-A*02:01; assay: killing
[2] = target: T1, NY-ESO-1 peptide on HLA-A*02:01; assay: cytokine release

Row | binding result [2] | Binder | binding result [1]
1 | – | 19305DP (TCR, V domains shown) Valpha: SQQGEEDPQALSIQEGENATMNCSYKTSINNLQWYRQNSGRGLVHLILIRSNEREKHSGRLRVTLDTSKKSSSLLITASRAADTASYFCATDGGGTLTFGKGTMLLVSP Vbeta: DAGVIQSPRHEVTEMGQEVTLRCKPISGHDYLFWYRQTMMRGLELLIYFNNNVPIDDSGMPEDRFSAKMPNASFSTLKIQPSEPRDSAVYFCASKWGGTEAFFGQGTRLTVV | recognises
2 | – | AL (TCR, V domains shown) Valpha: QKEVEQNSGPLSVPEGAIASLNCTYSDRGSQSFFWYRQYSGKSPELIMSIYSNGDKEDGRFTAQLNKASQYVSLLIRDSQPSDSATYLCAVGGLTSSNTGKLIFGQGTTLQVKP Vbeta: DVKVTQSSRYLVKRTGEKVFLECVQDMDHENMFWYRQDPGLGLRLIYFSYDVKMKEKGDIPEGYSVSREKKERFSLILESASTNQTSMYLCASSNQIYGYTFGSGTRLTVV | recognises
3 | recognises | JD (TCR, V domains shown) Valpha: QKEVEQNSGPLSVPEGAIASLNCTYSDRGSQSFFWYRQYSGKSPELIMFIYSNGDKEDGRFTAQLNKASQYVSLLIRDSQPSDSATYLCAVGATNKLIFGTGTLLAVQP Vbeta: EAGVTQFPSHSVIEKGQTVTLRCDPISGHDNLYWYRRVMGKEIKFLLHFVKESKQDESGMPNNRFLAERTGGTYSTLKVQPAELEDSGVYFCASSQAYGTEAFFGQGTRLTVV | –
